Patent US20160200782A1

Assays:
Assay in all cases: cell-based or functional assay
AMPKa2(h) (human) = AMPKa2(h) (human) (UniProt P54646)
MST1(h) (human) = MST1(h) (human) (UniProt Q13043)
GSK3α(h) (human) = GSK3α(h) (human) (UniProt P49840)
BTK(h) (human) = BTK(h) (human) (UniProt Q06187)
PKCγ(h) (human) = PKCγ(h) (human) (UniProt P05129)
LKB1(h) (human) = LKB1(h) (human) (UniProt Q15831)
EGFR(L858R)(h) (human) = EGFR(L858R)(h) (human) (UniProt P00533)
PKCδ(h) (human) = PKCδ(h) (human) (UniProt Q05655)
Rsk2(h) (human) = Rsk2(h) (human) (UniProt P51812)
JAK3(h) (human) = JAK3(h) (human) (UniProt P52333)
MINK(h) (human) = MINK(h) (human) (UniProt Q8N4C8)
MINK(h) (human), sequence (Q8N4C8 1-320 limits assumed): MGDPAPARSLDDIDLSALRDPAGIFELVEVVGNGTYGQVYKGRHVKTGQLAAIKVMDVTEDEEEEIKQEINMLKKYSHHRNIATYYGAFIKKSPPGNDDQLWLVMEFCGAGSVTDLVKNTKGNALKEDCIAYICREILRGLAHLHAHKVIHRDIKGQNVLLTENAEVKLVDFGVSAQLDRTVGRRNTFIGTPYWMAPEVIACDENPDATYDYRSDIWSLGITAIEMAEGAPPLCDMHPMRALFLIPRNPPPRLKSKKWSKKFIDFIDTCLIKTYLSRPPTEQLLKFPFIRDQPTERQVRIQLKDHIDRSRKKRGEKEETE

ROCK-II(h) (human) = ROCK-II(h) (human) (UniProt O75116)
Plk3(h) (human) = Plk3(h) (human) (UniProt Q9H4B4)
Plk3(h) (human), sequence (Q9H4B4 whole entry): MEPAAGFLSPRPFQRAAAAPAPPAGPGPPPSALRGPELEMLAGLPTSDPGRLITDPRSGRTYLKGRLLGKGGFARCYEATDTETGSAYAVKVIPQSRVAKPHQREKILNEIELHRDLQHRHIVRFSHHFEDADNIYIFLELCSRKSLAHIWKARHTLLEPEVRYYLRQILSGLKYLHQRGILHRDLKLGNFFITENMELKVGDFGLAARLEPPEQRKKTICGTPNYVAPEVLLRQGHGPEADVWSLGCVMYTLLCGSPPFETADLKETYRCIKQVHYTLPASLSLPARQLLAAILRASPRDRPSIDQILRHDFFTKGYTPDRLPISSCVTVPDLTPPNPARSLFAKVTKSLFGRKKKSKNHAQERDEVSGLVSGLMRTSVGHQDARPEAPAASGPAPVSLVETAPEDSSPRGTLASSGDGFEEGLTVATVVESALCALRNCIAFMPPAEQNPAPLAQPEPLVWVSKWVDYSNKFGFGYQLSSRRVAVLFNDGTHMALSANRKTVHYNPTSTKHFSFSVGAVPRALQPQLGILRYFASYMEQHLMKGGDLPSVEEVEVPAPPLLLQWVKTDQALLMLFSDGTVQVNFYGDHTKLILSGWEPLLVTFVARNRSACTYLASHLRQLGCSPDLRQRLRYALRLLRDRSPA

Flt1(h) (human) = Flt1(h) (human) (UniProt P17948)
PDGFRα(V561D)(h) (human) = PDGFRα(V561D)(h) (human) (UniProt P16234)
Ret(V804M)(h) (human) = Ret(V804M)(h) (human) (UniProt P07949)
Ret(V804M)(h) (human), sequence (P07949 658-1114 V804M limits assumed): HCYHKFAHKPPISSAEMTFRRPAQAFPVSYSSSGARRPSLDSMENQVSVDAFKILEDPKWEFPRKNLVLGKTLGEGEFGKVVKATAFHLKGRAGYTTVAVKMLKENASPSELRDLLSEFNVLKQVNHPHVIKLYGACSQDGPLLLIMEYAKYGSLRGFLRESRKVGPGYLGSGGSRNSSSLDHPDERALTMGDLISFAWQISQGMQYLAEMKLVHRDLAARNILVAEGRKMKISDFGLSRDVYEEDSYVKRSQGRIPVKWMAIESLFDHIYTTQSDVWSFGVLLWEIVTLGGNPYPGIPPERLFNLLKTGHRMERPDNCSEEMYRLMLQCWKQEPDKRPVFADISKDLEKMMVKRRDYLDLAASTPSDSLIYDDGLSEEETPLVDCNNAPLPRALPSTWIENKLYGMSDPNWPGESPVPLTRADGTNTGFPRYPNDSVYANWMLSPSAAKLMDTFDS

CK2(h) (human) = target: CK2(h) (human)
TrkA(h) (human) = TrkA(h) (human) (UniProt P04629)
KDR(h) (human) = KDR(h) (human) (UniProt P35968)
KDR(h) (human), sequence (P35968 790-1356 limits assumed): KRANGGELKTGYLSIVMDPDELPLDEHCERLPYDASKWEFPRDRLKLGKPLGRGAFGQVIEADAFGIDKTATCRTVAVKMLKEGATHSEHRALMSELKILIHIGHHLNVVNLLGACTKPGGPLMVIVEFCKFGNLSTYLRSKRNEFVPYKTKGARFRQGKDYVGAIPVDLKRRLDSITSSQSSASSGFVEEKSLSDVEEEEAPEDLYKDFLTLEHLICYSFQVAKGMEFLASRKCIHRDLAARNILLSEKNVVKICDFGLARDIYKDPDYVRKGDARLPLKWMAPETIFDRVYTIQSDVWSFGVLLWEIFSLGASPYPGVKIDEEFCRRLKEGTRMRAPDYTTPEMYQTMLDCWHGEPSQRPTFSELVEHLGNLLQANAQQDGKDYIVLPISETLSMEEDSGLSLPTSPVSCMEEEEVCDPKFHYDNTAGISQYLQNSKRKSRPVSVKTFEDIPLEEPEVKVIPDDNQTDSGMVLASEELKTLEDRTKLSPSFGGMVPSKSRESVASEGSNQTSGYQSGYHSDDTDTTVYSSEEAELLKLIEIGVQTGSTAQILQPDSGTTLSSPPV

EphA5(h) (human) = EphA5(h) (human) (UniProt P54756)
Tie2(R849W)(h) (human) = Tie2(R849W)(h) (human) (UniProt Q02763)
MAPK1(h) (human) = MAPK1(h) (human) (UniProt P28482)
MKK7β(h) (human) = MKK7β(h) (human) (UniProt O14733)
FGFR1(V561M)(h) (human) = FGFR1(V561M)(h) (human) (UniProt P11362)
CK1γ2(h) (human) = CK1γ2(h) (human) (UniProt P78368)
TAK1(h) (human) = TAK1(h) (human) (UniProt O43318)
IGF-1R(h) (human) = IGF-1R(h) (human) (UniProt P08069)
Fms(Y969C)(h) (human) = Fms(Y969C)(h) (human) (UniProt P07333)
EphA2(h) (human) = EphA2(h) (human) (UniProt P29317)
CLK2(h) (human) = CLK2(h) (human) (UniProt P49760)
Plk1(h) (human) = Plk1(h) (human) (UniProt P53350)
CK1γ1(h) (human) = CK1γ1(h) (human) (UniProt Q9HCP0)
PAK6(h) (human) = PAK6(h) (human) (UniProt Q9NQU5)
JNK1α1(h) (human) = JNK1α1(h) (human) (UniProt P45983)
GRK5(h) (human) = GRK5(h) (human) (UniProt P34947)
CK2α2(h) (human) = CK2α2(h) (human) (UniProt P19784)
Fgr(h) (human) = Fgr(h) (human) (UniProt P09769)
Yes(h) (human) = Yes(h) (human) (UniProt P07947)
CK1γ3(h) (human) = CK1γ3(h) (human) (UniProt Q9Y6M4)
FGFR2(N549H)(h) (human) = FGFR2(N549H)(h) (human) (UniProt P21802)
PAK3(h) (human) = PAK3(h) (human) (UniProt O75914)
Also: test concentration or dose not given here.

BTK(h) (human), sequence (Q06187 whole entry): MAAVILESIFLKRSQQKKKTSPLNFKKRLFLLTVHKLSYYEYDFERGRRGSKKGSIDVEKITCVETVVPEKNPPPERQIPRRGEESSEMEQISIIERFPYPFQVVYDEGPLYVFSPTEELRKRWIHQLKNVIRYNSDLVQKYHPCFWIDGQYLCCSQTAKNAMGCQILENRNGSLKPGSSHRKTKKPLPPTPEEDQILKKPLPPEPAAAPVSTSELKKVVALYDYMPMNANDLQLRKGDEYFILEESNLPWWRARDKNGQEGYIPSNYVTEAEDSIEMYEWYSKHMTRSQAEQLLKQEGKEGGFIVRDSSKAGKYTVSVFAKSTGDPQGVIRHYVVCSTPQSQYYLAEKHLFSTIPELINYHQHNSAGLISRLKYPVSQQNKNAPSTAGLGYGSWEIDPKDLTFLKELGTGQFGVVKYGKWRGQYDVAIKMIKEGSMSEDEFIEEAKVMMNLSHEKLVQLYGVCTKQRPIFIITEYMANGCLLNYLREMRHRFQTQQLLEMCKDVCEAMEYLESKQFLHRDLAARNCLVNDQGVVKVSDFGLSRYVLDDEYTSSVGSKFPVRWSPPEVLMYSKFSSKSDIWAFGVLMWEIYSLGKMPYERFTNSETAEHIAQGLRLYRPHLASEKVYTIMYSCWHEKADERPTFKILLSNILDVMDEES
GSK3α(h) (human), sequence (P49840 whole entry): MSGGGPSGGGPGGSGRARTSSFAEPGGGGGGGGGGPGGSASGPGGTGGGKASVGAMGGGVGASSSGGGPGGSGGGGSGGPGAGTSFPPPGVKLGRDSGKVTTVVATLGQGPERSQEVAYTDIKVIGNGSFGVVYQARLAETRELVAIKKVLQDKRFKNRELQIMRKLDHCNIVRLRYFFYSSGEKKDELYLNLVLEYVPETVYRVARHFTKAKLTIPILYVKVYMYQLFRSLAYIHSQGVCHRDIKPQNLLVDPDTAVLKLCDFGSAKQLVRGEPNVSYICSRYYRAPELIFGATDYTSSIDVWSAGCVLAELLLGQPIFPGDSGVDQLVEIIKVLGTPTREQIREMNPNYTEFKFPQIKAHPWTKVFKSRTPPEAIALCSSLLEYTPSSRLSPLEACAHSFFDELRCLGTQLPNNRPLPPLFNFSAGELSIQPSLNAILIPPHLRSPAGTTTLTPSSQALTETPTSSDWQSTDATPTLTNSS
AMPKa2(h) (human), sequence (P54646 whole entry): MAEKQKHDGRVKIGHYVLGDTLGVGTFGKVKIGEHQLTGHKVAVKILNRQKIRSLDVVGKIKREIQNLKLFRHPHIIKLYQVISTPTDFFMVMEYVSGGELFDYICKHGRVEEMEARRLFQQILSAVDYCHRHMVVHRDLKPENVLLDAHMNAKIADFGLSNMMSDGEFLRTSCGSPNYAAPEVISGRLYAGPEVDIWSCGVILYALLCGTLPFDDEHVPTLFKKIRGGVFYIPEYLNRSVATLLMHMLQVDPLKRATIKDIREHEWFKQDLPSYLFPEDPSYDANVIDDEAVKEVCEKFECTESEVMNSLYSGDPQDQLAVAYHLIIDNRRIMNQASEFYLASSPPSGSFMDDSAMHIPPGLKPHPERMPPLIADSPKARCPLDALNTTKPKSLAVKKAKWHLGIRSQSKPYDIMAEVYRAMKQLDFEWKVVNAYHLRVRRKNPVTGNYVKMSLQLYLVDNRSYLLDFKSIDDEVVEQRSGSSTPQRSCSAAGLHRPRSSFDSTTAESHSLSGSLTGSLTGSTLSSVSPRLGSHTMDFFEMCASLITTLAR
MST1(h) (human), sequence (Q13043 whole entry): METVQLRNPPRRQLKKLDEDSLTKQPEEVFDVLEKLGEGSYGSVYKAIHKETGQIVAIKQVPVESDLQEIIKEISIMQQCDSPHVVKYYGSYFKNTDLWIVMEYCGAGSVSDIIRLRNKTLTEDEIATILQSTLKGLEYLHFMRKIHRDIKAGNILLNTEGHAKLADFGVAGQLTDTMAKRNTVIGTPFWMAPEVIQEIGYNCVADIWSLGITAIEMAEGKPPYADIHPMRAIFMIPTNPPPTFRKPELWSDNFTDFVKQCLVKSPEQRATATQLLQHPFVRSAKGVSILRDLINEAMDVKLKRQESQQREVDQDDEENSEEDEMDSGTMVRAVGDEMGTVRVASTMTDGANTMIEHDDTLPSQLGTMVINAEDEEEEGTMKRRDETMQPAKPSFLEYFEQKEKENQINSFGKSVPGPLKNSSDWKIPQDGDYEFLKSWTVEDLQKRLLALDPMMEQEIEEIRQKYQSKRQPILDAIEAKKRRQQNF

MMI-0500 (peptide)
% activity (AMPKa2(h) (human)): 9% | % activity (MST1(h) (human)): 3% | % activity (GSK3α(h) (human)): 175% | % activity (BTK(h) (human)): 18% | % activity (PKCγ(h) (human)): 6% | % activity (LKB1(h) (human)): 51% | % activity (EGFR(L858R)(h) (human)): 26% | % activity (PKCδ(h) (human)): 61% | % activity (Rsk2(h) (human)): 14% | % activity (JAK3(h) (human)): 95% | % activity (MINK(h) (human)): 5% | % activity (ROCK-II(h) (human)): 2% | % activity (Plk3(h) (human)): 122% | % activity (Flt1(h) (human)): 27% | % activity (PDGFRα(V561D)(h) (human)): 146% | % activity (Ret(V804M)(h) (human)): 36% | % activity (CK2(h) (human)): 93% | % activity (TrkA(h) (human)): 24% | % activity (KDR(h) (human)): 15% | % activity (EphA5(h) (human)): 42%

MMI-0100 (peptide)
% activity (Tie2(R849W)(h) (human)): 102% | % activity (MAPK1(h) (human)): 108% | % activity (AMPKa2(h) (human)): 121% | % activity (MKK7β(h) (human)): 137% | % activity (MST1(h) (human)): 85% | % activity (FGFR1(V561M)(h) (human)): 108% | % activity (GSK3α(h) (human)): 183% | % activity (BTK(h) (human)): 112% | % activity (PKCγ(h) (human)): 94% | % activity (CK1γ2(h) (human)): 119% | % activity (TAK1(h) (human)): 116% | % activity (LKB1(h) (human)): 111% | % activity (IGF-1R(h) (human)): 102% | % activity (EGFR(L858R)(h) (human)): 76% | % activity (PKCδ(h) (human)): 100% | % activity (Rsk2(h) (human)): 65% | % activity (Fms(Y969C)(h) (human)): 126% | % activity (EphA2(h) (human)): 58% | % activity (CLK2(h) (human)): 88% | % activity (JAK3(h) (human)): 150% | % activity (MINK(h) (human)): 96% | % activity (ROCK-II(h) (human)): 102% | % activity (Plk3(h) (human)): 107% | % activity (Flt1(h) (human)): 109% | % activity (PDGFRα(V561D)(h) (human)): 58% | % activity (Plk1(h) (human)): 109% | % activity (CK1γ1(h) (human)): 110% | % activity (Ret(V804M)(h) (human)): 92% | % activity (PAK6(h) (human)): 121% | % activity (JNK1α1(h) (human)): 91% | % activity (GRK5(h) (human)): 117% | % activity (CK2α2(h) (human)): 104% | % activity (Fgr(h) (human)): 54% | % activity (CK2(h) (human)): 90% | % activity (Yes(h) (human)): 49% | % activity (CK1γ3(h) (human)): 105% | % activity (FGFR2(N549H)(h) (human)): 95% | % activity (TrkA(h) (human)): 74% | % activity (KDR(h) (human)): 100% | % activity (EphA5(h) (human)): 110%

MMI-0200 (peptide)
% activity (Tie2(R849W)(h) (human)): 89% | % activity (MAPK1(h) (human)): 97% | % activity (AMPKa2(h) (human)): 88% | % activity (MKK7β(h) (human)): 117% | % activity (PAK3(h) (human)): 50% | % activity (MST1(h) (human)): 72% | % activity (FGFR1(V561M)(h) (human)): 72% | % activity (GSK3α(h) (human)): 119% | % activity (BTK(h) (human)): 100% | % activity (PKCγ(h) (human)): 101% | % activity (CK1γ2(h) (human)): 104% | % activity (TAK1(h) (human)): 124% | % activity (LKB1(h) (human)): 99% | % activity (IGF-1R(h) (human)): 49% | % activity (EGFR(L858R)(h) (human)): 120% | % activity (PKCδ(h) (human)): 101% | % activity (Rsk2(h) (human)): 101% | % activity (Fms(Y969C)(h) (human)): 88% | % activity (EphA2(h) (human)): 95% | % activity (CLK2(h) (human)): 97% | % activity (JAK3(h) (human)): 117% | % activity (MINK(h) (human)): 103% | % activity (ROCK-II(h) (human)): 85% | % activity (Plk3(h) (human)): 107% | % activity (Flt1(h) (human)): 96% | % activity (PDGFRα(V561D)(h) (human)): 106% | % activity (Plk1(h) (human)): 128% | % activity (CK1γ1(h) (human)): 98% | % activity (Ret(V804M)(h) (human)): 105% | % activity (PAK6(h) (human)): 105% | % activity (JNK1α1(h) (human)): 106% | % activity (GRK5(h) (human)): 135% | % activity (CK2α2(h) (human)): 88% | % activity (Fgr(h) (human)): 71% | % activity (CK2(h) (human)): 83% | % activity (Yes(h) (human)): 93% | % activity (CK1γ3(h) (human)): 96% | % activity (FGFR2(N549H)(h) (human)): 104% | % activity (KDR(h) (human)): 110% | % activity (EphA5(h) (human)): 123%
